Among the data in paper PMC6021111, “Murine leukemia virus p12 tethers the capsid-containing pre-integration complex to chromatin by binding directly to host nucleosomes in mitosis” (PLoS Pathogens, 2018) are screen value (SDs from the mean) values, retold here.

To fix the notation:
B1: unnamed (parent)
chain 1: PALTPSLGAKPKPQVLSDSGGPLIDLLTEDPPPYRDPRPPPSDRDGNGGEATPAGEAPDPSPMASRLRGRREPPVADSTTSQAF
chain 2: MAELDPFGAPAGAPGGPALGNGVAGAGEEDPAAAFLAQQESEIAGIENDEAFAILDGGAPGPQPHGEPPGGPDAVDGVMNGEYYQESNGPTDSYAAISQVDRLQSEPESIRKWREEQMERLEALDANSRKQEAEWKEKAIKELEEWYARQDEQLQKTKANNRVADEAFYKQPFADVIGYVTNINHPCYSLEQAAEEAFVNDIDESSPGTEWERVARLCDFNPKSSKQAKDVSRMRSVLISLKQAPLVH
B2: unnamed (parent)
chain 1: B1 chain 1
chain 2: MAQILPIRFQEHLQLQNLGINPANIGFSTLTMESDKFICIREKVGEQAQVVIIDMNDPSNPIRRPISADSAIMNPASKVIALKAGKTLQIFNIEMKSKMKAHTMTDDVTFWKWISLNTVALVTDNAVYHWSMEGESQPVKMFDRHSSLAGCQIINYRTDAKQKWLLLTGISAQQNRVVGAMQLYSVDRKVSQPIEGHAASFAQFKMEGNAEESTLFCFAVRGQAGGKLHIIEVGTPPTGNQPFPKKAVDVFFPPEAQNDFPVAMQISEKHDVVFLITKYGYIHLYDLETGTCIYMNRISGETIFVTAPHEATAGIIGVNRKGQVLSVCVEEENIIPYITNVLQNPDLALRMAVRNNLAGAEELFARKFNALFAQGNYSEAAKVAANAPKGILRTPDTIRRFQSVPAQPGQTSPLLQYFGILLDQGQLNKYESLELCRPVLQQGRKQLLEKWLKEDKLECSEELGDLVKSVDPTLALSVYLRANVPNKVIQCFAETGQVQKIVLYAKKVGYTPDWIFLLRNVMRISPDQGQQFAQMLVQDEEPLADITQIVDVFMEYNLIQQCTAFLLDALKNNRPSEGPLQTRLLEMNLMHAPQVADAILGNQMFTHYDRAHIAQLCEKAGLLQRALEHFTDLYDIKRAVVHTHLLNPEWLVNYFGSLSVEDSLECLRAMLSANIRQNLQICVQVASKYHEQLSTQSLIELFESFKSFEGLFYFLGSIVNFSQDPDVHFKYIQAACKTGQIKEVERICRESNCYDPERVKNFLKEAKLTDQLPLIIVCDRFDFVHDLVLYLYRNNLQKYIEIYVQKVNPSRLPVVIGGLLDVDCSEDVIKNLILVVRGQFSTDELVAEVEKRNRLKLLLPWLEARIHEGCEEPATHNALAKIYIDSNNNPERFLRENPYYDSRVVGKYCEKRDPHLACVAYERGQCDLELINVCNENSLFKSLSRYLVRRKDPELWGSVLLESNPYRRPLIDQVVQTALSETQDPEEVSVTVKAFMTADLPNELIELLEKIVLDNSVFSEHRNLQNLLILTAIKADRTRVMEYINRLDNYDAPDIANIAISNELFEEAFAIFRKFDVNTSAVQVLIEHIGNLDRAYEFAERCNEPAVWSQLAKAQLQKGMVKEAIDSYIKADDPSSYMEVVQAANTSGNWEELVKYLQMARKKARESYVETELIFALAKTNRLAELEEFINGPNNAHIQQVGDRCYDEKMYDAAKLLYNNVSNFGRLASTLVHLGEYQAAVDGARKANSTRTWKEVCFACVDGKEFRLAQMCGLHIVVHADELEELINYYQDRGYFEELITMLEAALGLERAHMGMFTELAILYSKFKPQKMREHLELFWSRVNIPKVLRAAEQAHLWAELVFLYDKYEEYDNAIITMMNHPTDAWKEGQFKDIITKVANVELYYRAIQFYLEFKPLLLNDLLMVLSPRLDHTRAVNYFSKVKQLPLVKPYLRSVQNHNNKSVNESLNNLFITEEDYQALRTSIDAYDNFDNISLAQRLEKHELIEFRRIAAYLFKGNNRWKQSVELCKKDSLYKDAMQYASESKDTELAEELLQWFLQEEKRECFGACLFTCYDLLRPDVVLETAWRHNIMDFAMPYFIQVMKEYLTKVDKLDASESLRKEEEQATETQPIVYGQPQLMLTAGPSVAVPPQAPFGYGYTAPPYGQPQPGFGYSM
B3: unnamed (parent)
chain 1: B1 chain 1
chain 2: MAQISSNSGFKECPSSHPEPTRAKDVDKEEALQMEAEALAKLQKDRQVTDNQRGFELSSSTRKKAQVYNKQDYDLMVFPESDSQKRALDIDVEKLTQAELEKLLLDDSFETKKTPVLPVTPILSPSFSAQLYFRPTIQRGQWPPGLPGPSTYALPSIYPSTYSKQAAFQNGFNPRMPTFPSTEPIYLSLPGQSPYFSYPLTPATPFHPQGSLPIYRPVVSTDMAKLFDKIASTSEFLKNGKARTDLEITDSKVSNLQVSPKSEDISKFDWLDLDPLSKPKVDNVEVLDHEEEKNVSSLLAKDPWDAVLLEERSTANCHLERKVNGKSLSVATVTRSQSLNIRTTQLAKAQGHISQKDPNGTSSLPTGSSLLQEVEVQNEEMAAFCRSITKLKTKFPYTNHRTNPGYLLSPVTAQRNICGENASVKVSIDIEGFQLPVTFTCDVSSTVEIIIMQALCWVHDDLNQVDVGSYVLKVCGQEEVLQNNHCLGSHEHIQNCRKWDTEIRLQLLTFSAMCQNLARTAEDDETPVDLNKHLYQIEKPCKEAMTRHPVEELLDSYHNQVELALQIENQHRAVDQVIKAVRKICSALDGVETLAITESVKKLKRAVNLPRSKTADVTSLFGGEDTSRSSTRGSLNPENPVQVSINQLTAAIYDLLRLHANSGRSPTDCAQSSKSVKEAWTTTEQLQFTIFAAHGISSNWVSNYEKYYLICSLSHNGKDLFKPIQSKKVGTYKNFFYLIKWDELIIFPIQISQLPLESVLHLTLFGILNQSSGSSPDSNKQRKGPEALGKVSLPLFDFKRFLTCGTKLLYLWTSSHTNSVPGTVTKKGYVMERIVLQVDFPSPAFDIIYTTPQVDRSIIQQHNLETLENDIKGKLLDILHKDSSLGLSKEDKAFLWEKRYYCFKHPNCLPKILASAPNWKWVNLAKTYSLLHQWPALYPLIALELLDSKFADQEVRSLAVTWIEAISDDELTDLLPQFVQALKYEIYLNSSLVQFLLSRALGNIQIAHNLYWLLKDALHDVQFSTRYEHVLGALLSVGGKRLREELLKQTKLVQLLGGVAEKVRQASGSARQVVLQRSMERVQSFFQKNKCRLPLKPSLVAKELNIKSCSFFSSNAVPLKVTMVNADPMGEEINVMFKVGEDLRQDMLALQMIKIMDKIWLKEGLDLRMVIFKCLSTGRDRGMVELVPASDTLRKIQVEYGVTGSFKDKPLAEWLRKYNPSEEEYEKASENFIYSCAGCCVATYVLGICDRHNDNIMLRSTGHMFHIDFGKFLGHAQMFGSFKRDRAPFVLTSDMAYVINGGEKPTIRFQLFVDLCCQAYNLIRKQTNLFLNLLSLMIPSGLPELTSIQDLKYVRDALQPQTTDAEATIFFTRLIESSLGSIATKFNFFIHNLAQLRFSGLPSNDEPILSFSPKTYSFRQDGRIKEVSVFTYHKKYNPDKHYIYVVRILREGQIEPSFVFRTFDEFQELHNKLSIIFPLWKLPGFPNRMVLGRTHIKDVAAKRKIELNSYLQSLMNASTDVAECDLVCTFFHPLLRDEKAEGIARSADAGSFSPTPGQIGGAVKLSISYRNGTLFIMVMHIKDLVTEDGADPNPYVKTYLLPDNHKTSKRKTKISRKTRNPTFNEMLVYSGYSKETLRQRELQLSVLSAESLRENFFLGGVTLPLKDFNLSKETVKWYQLTAATYL
B4: unnamed (parent)
chain 1: B1 chain 1
chain 2: MLNMWKVRELVDKATNVVMNYSEIESKVREATNDDPWGPSGQLMGEIAKATFMYEQFPELMNMLWSRMLKDNKKNWRRVYKSLLLLAYLIRNGSERVVTSAREHIYDLRSLENYHFVDEHGKDQGINIRQKVKELVEFAQDDDRLREERKKAKKNKDKYVGVSSDSVGGFRYSERYDPEPKSKWDEEWDKNKSAFPFSDKLGELSDKIGSTIDDTISKFRRKDREDSPERCSDSDEEKKARRGRSPKGEFKDEEETVTTKHIHITQATETTTTRHKRTANPSKTIDLGAAAHYTGDKASPDQNASTHTPQSSVKTSVPSSKSSGDLVDLFDGTSQSTGGSADLFGGFADFGSAAASGSFPSQVTATSGNGDFGDWSAFNQAPSGPVASSGEFFGSASQPAVELVSGSQSALGPPPAASNSSDLFDLMGSSQATMTSSQSMNFSMMSTNTVGLGLPMSRSQNTDMVQKSVSKTLPSTWSDPSVNISLDNLLPGMQPSKPQQPSLNTMIQQQNMQQPMNVMTQSFGAVNLSSPSNMLPVRPQTNALIGGPMPMSMPNVMTGTMGMAPLGNTPMMNQSMMGMNMNIGMSAAGMGLTGTMGMGMPNIAMTSGTVQPKQDAFANFANFSK

The variants in one assay derive from B1. Put plainly: SILAC-MS of GST pull-down. The following applies: with partner chain of the complex shown; mitotic 293T cell lysates; replicate R2.
On to chain 1 S65A R66A L67A R68A G69A, for which the screen value (SDs from the mean) is 1.4.

Another assay covers variants of B2. Put plainly: SILAC-MS of GST pull-down. The following applies: with partner chain of the complex shown; mitotic 293T cell lysates; replicate R1.
In the case of chain 1 S65A R66A L67A R68A G69A, the screen value (SDs from the mean) amounted to 1.

Staying with this assay, now noted: with partner chain of the complex shown; mitotic 293T cell lysates; replicate R2.
As to chain 1 S65A R66A L67A R68A G69A, the screen value (SDs from the mean) stood at 2.3.

The variants in a further assay derive from B3. Briefly: SILAC-MS of GST pull-down. The following applies: with partner chain of the complex shown; mitotic 293T cell lysates; replicate R1.
On to chain 1 S65A R66A L67A R68A G69A, for which the screen value (SDs from the mean) turned out to be 1.4.

The assay is the same for the next values; noted with them: with partner chain of the complex shown; mitotic 293T cell lysates; replicate R2.
As to chain 1 S65A R66A L67A R68A G69A, the screen value (SDs from the mean) is 1.4.

In another assay the parent is B4. Briefly: SILAC-MS of GST pull-down. The following applies: with partner chain of the complex shown; mitotic 293T cell lysates; replicate R1.
Regarding chain 1 S65A R66A L67A R68A G69A, the screen value (SDs from the mean) is 1.4.

The assay is the same for the next values; noted with them: with partner chain of the complex shown; mitotic 293T cell lysates; replicate R2.
As to chain 1 S65A R66A L67A R68A G69A, the screen value (SDs from the mean) was found to be 3.3.
